In test [1] the target is purified skeletal muscle actin (rabbit) (UniProt P68135). The test is described as follows: inhibition of actin polymerization (ultracentrifugation assay); apparent; skeletal muscle actin (18 µM) with increasing GST-RPEL (350–422 aa); 100 mM KCl, 2 mM MgCl2, 10 mM Tris-HCl pH 7.8, 20°C 60 min (legend: room temperature 30 minutes); 130,000 g 15 min; fraction of depolymerized actin by densitometry, nonlinear regression.

For test [2], the target named is actin (Oryctolagus cuniculus) (UniProt P68135). To be noted: cited from earlier work.
Test [3] has the same target. Conditions: cited from earlier work. This is another data set of the same source.
The target is the same in test [4]. To be noted: cited from earlier work. This is another data set of the same source.

Like-named read-outs stand apart in the source and are kept apart here.

On to “GST-RPEL construct of scapinin, 350–422 aa (domain or fragment)”, for which, in test [1], the Kd was 0.018 µM and the stoichiometry N (commonly the number of molecules, sites or subunits per partner or assembly) turned out to be 1.21. As to MAL RPEL1 (from UniProt Q8K4J6), in test [2], the Kd was 5.4 µM. For the substance MAL RPEL2 (from UniProt Q8K4J6), the Kd in test [3] was 2.3 µM.

Take MAL RPEL3 (from UniProt Q8K4J6): the Kd in test [4] is 18.8 µM.

Values taken from publication PMC2626280.
